Laboratory results: patent US5973110A, “Cytotoxic T-lymphocyte antigen as cysteine protease inhibitor” (Bayer Corporation, priority 1995, dated 1999)
Each block holds one molecule with its values, some of them ahead of it. No end group written: not given here.

Columns and labels:
[1] = tested on: articular cartilage explants from calf knee joints; assay: Micro organ culture assay (MOCA): IL-1 induced proteoglycan release from articular cartilage explants; type: cell-based; settings: IL-1 induced degradation; p117 10 uM (best concentration)
Excerpt: The assay system used for testing the peptides for inhibitory activity of proteoglycan release is a micro organ culture assay (MOCA). Papain; cetyl pyridinium chloride and chondroitin sulfate type C was purchased from Sigma Chemical Co. (St. Louis, Mo.). Interleukin 1 alpha was purchased from Collaborative Research. ABCase, chrondroitinase, ABC lyase, and keratanase were obtained from ICI. Na ^35 SO4 was purchased from NEN.
Articular cartilage explants from calf knee joints were maintained in culture in DMEM medium containing 20 uCi/ml Na ^35 SO4 for 48 hours for the incorporation of label into newly synthesized proteoglycan (PG). The radiolabelled medium was then removed, the radiolabelled explants washed 3×30 ml cold DMEM and placed into a 96 well plate with or without IL-1 (Interleukin-1 alpha, 50 U/ml) and various concentrations of p117. The explants were incubated first for 24 hours in the presence of IL-1 in order to ensure initiation of IL-1 induced auto-catalysis prior to the addition of various metalloprotease inhibitors for an additional 72 hours.
The newly synthesized radiolabelled proteoglycans released during the cultivation period were subjected to enzymatic digestion with papain. […] The filter was dried and counted after addition of 10 mls of scintillation cocktail (scintillant).

human liver Cathepsin L [2] = target: T1, human liver Cathepsin L (Homo sapiens, UniProt P07711); assay: Cathepsin L assay (fluorescence, Z-Phe-Arg-AMC hydrolysis); type: biochemical; parameters: from tissue; b54 says 'human kidney cell cathepsins'
Target sequence in this assay (P07711 114-288 limits assumed): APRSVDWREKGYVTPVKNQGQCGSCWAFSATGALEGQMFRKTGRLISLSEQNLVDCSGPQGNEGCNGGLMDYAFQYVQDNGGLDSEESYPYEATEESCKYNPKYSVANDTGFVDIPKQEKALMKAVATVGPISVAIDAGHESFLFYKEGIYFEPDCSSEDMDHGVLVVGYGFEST
Target sequence in this assay (P07711 292-333 limits assumed): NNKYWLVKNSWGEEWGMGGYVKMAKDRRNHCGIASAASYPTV
Method: A fluorescence based assay was set up according to Barrett and Kirschke (Barrett et al., 1981, Meth. in Enz., 80:535).
After an incubation period of 6 minutes at room temperature, 1500 μl of 0.1% Brij 35 was added. The substrate Z-Phe-Arg-AMC (AMC is aminomethyl-coumarin) was added at a final concentration of either 2.5 μM or 5.0 μM.
The fluorescence of the free aminomethyl-coumarin was measured in an SLM 4800s fluorimeter by excitation at 370 nm and emission at 432 nm over a six minute time period. […] In order to calculate the velocities, a linear least squares analysis was performed over the initial linear part of the data. […]
These peptides were tested for inhibition of Cathepsin L activity using the assays described previously. Briefly, Cathepsin L (19 pM final as determined by active site titration using E-64, Barret & Kirschke, 1991) was added to 750 uL of assay buffer consisting of 340 nM sodium acetate--60 mM acetic acid (pH 5.5), 4 mM disodium EDTA, and 8 mM DTT. […] The fluorescence of the free aminomethylcoumarin was measured in an SLM 4800s fluorimeter at excitation of 370 nm and an emission at 432 nm over a 6 minute time period. Fluorescence was converted to uM AMC released by using a standard curve generated by plotting uM AMC vs. fluorescence, and plotted vs. time. […]

human liver Cathepsin L [3] = target: T1, human liver Cathepsin L
[4] = tested on: cartilage proteoglycan degradation; settings: at 100 uM concentrations; cited from earlier work
human liver Cathepsin L [5] = target: T1, human liver Cathepsin L; remark: listed apart in the source
human liver Cathepsin L [6] = target: T1, human liver Cathepsin L; remark: listed apart in the source
cartilage degradation = settings: rabbits, IL-1 injected into joint capsule; cited from earlier work

Molecule: YSLDEERHRRLMWEENKKKIEAH [p117]
% inhibition of proteoglycan release [1]: about 30%
IC50 (human liver Cathepsin L [2]; Cathepsin L 19 pM, 5.0 uM Z-Phe-Arg-NMec(AMC), Dixon plot V-/V+ vs. peptide concentration, read-out: i.c. 50 (synthetic peptides, Cathepsin L)): 5.3 µM
inhibitory activity of the peptides (in words) (human liver Cathepsin L [2]; summary in Example 7): best activity

Molecule: CC(C)C[C@H](NC(=O)[C@H]1O[C@@H]1C(=O)O)C(=O)NCCCCN=C(N)N (relative stereo) [E64, trans-epoxysuccinyl-L-leucylamido-(4-guanido)butane]
inhibition of IL-1 stimulated cartilage proteoglycan degradation (in words) [4]: did not work

Molecule: CC(C)CCNC(=O)[C@H](CC(C)C)NC(=O)[C@H]1O[C@@H]1C(=O)O [Ep475]
inhibition of IL-1 stimulated cartilage proteoglycan degradation (in words) [4]: did not work

Molecule: CRGEMAPDLPEYEDLG [p092]
i.c. 50 (human liver Cathepsin L [6]): 41 µM

B1: PN-1: large serine protease inhibitor PN-1 (43 KD) (protein, UniProt P07093 20-398, looked up)
Glia-derived nexin: SHFNPLSLEELGSNTGIQVFNQIVKSRPHDNIVISPHGIASVLGMLQLGADGRTKKQLAMVMRYGVNGVGKILKKINKAIVSKKNKDIVTVANAVFVKNASEIEVPFVTRNKDVFQCEVRNVNFEDPASACDSINAWVKNETRDMIDNLLSPDLIDGVLTRLVLVNAVYFKGLWKSRFQPENTKKRTFVAADGKSYQVPMLAQLSVFRCGSTSAPNDLWYNFIELPYHGESISMLIALPTESSTPLSAIIPHISTKTIDSWMSIMVPKRVQVILPKFTAVAQTDLKEPLKVLGITDMFDSSKANFAKITTGSENLHVSHILQKAKIEVSEDGTKASAATTAILIARSSPPWFIVDRPFLFFIRHNPTGAVLFMGQINKP
effect on IL-1 induced cartilage degradation (in words) (cartilage degradation): can ameliorate this degradation

Molecule: YSLDEERHRRLMWEENKKKIEAH [p117]
i.c. 50 (human liver Cathepsin L [6]): 5.3 µM

More lines, now with the values ahead:

i.c. 50 in Cathepsin L Assay (human liver Cathepsin L [3]): 1.1 nM
Molecule: recombinant (murine) CTLA-2β, dimeric form

inhibition of hydrolysis of Z-Phe-Arg-AMC by Cathepsin L (fluorescence) (human liver Cathepsin L [5]): 60%
i.c. 50 in Cathepsin L Assay (human liver Cathepsin L [3]): 18.2 nM
Molecule: recombinant (murine) CTLA-2β, monomeric form

inhibition of hydrolysis of Z-Phe-Arg-NMec(AMC) by Cathepsin L (fluorescence) (% inhibition at 10 uM) (human liver Cathepsin L [6]): 25
Molecule: ENKKKIEAHNADYERGKTSFC [p089]
